The data set has as its system Escherichia coli TOP10. Put plainly: shrunken log2 fold change of peptide-encoding DNA abundance (4.5 h post-induction vs induction); higher = less antimicrobial activity (less host growth inhibition). As to conditions: time post-induction: 4.5 h; library: site-saturation at positions 5, 18, 19, 20.
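Further: peptides expressed intracellularly from a pBAD plasmid library in pooled LB shake-flask culture, induced with 0.3% L-arabinose, DNA abundance read by NGS, three biological replicates, DESeq2 with apeglm shrinkage.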

As for RRIRERPPRLPRPRPRPAGYPRP, the “shrunken log2 fold change” value came to 0.0991.

As for RRIRNRPPRLPRPRPRPRCVPRP, the “shrunken log2 fold change” value was -0.0119. Next, RRIRPRPPRLPRPRPRPPQKPRP: 0.19; RRIRMRPPRLPRPRPRPPFQPRP: 0.202.

Regarding RRIRWRPPRLPRPRPRPSAKPRP, the “shrunken log2 fold change” value is 0.833. With RRIRHRPPRLPRPRPRPSDWPRP, the “shrunken log2 fold change” value is -0.327. As for RRIRPRPPRLPRPRPRPTSIPRP, the “shrunken log2 fold change” value was -0.375. Regarding RRIRYRPPRLPRPRPRPPTEPRP, the “shrunken log2 fold change” value was 0.183. For RRIRRRPPRLPRPRPRPDATPRP, the “shrunken log2 fold change” value worked out at 1.32. For RRIRDRPPRLPRPRPRPKEIPRP, the “shrunken log2 fold change” value amounted to 0.0219. Take RRIRTRPPRLPRPRPRPIPSPRP: the “shrunken log2 fold change” value was -0.236. Next, RRIRFRPPRLPRPRPRPMPRPRP: 0.513; RRIRHRPPRLPRPRPRPLTFPRP: 0.01. Next, RRIRDRPPRLPRPRPRPTIVPRP: 0.0194; RRIRYRPPRLPRPRPRPGPIPRP: -0.0295; RRIRFRPPRLPRPRPRPFHWPRP: -0.336.

RRIRCRPPRLPRPRPRPQFYPRP: the “shrunken log2 fold change” value is -0.782. Next, RRIRIRPPRLPRPRPRPVFFPRP: -0.107; RRIRGRPPRLPRPRPRPVRKPRP: 1.72; RRIRDRPPRLPRPRPRPYPSPRP: -0.167. RRIRQRPPRLPRPRPRPNYYPRP: the “shrunken log2 fold change” value is -0.611. With RRIRDRPPRLPRPRPRPMWDPRP, the “shrunken log2 fold change” value came out at 0.00712.

Take RRIRTRPPRLPRPRPRPDSCPRP: the “shrunken log2 fold change” value is -0.311.

For the sequence RRIRVRPPRLPRPRPRPYDCPRP, the “shrunken log2 fold change” value is -0.9. RRIRSRPPRLPRPRPRPMYAPRP: the “shrunken log2 fold change” value was -0.29. On to RRIRRRPPRLPRPRPRPQLAPRP, for which the “shrunken log2 fold change” value was -0.0216. In the case of RRIRIRPPRLPRPRPRPVGPPRP, the “shrunken log2 fold change” value is 0.0747. For the sequence RRIRMRPPRLPRPRPRPRGHPRP, the “shrunken log2 fold change” value worked out at 1.33. Regarding RRIRLRPPRLPRPRPRPMELPRP, the “shrunken log2 fold change” value was -0.00973.

On to RRIRHRPPRLPRPRPRPTHAPRP, for which the “shrunken log2 fold change” value worked out at 0.233. For RRIRMRPPRLPRPRPRPCVMPRP, the “shrunken log2 fold change” value is 0.0536.

RRIRCRPPRLPRPRPRPTTDPRP: the “shrunken log2 fold change” value was -0.0121.

For RRIRFRPPRLPRPRPRPRKQPRP, the “shrunken log2 fold change” value was 0.415.

For the sequence RRIRKRPPRLPRPRPRPSFKPRP, the “shrunken log2 fold change” value is -0.0346.

Turning to RRIRNRPPRLPRPRPRPYWIPRP, the “shrunken log2 fold change” value was -1.71.

As for RRIRRRPPRLPRPRPRPTKCPRP, the “shrunken log2 fold change” value is 0.114.

Turning to RRIRQRPPRLPRPRPRPQGSPRP, the “shrunken log2 fold change” value was found to be 0.0165.

Consider RRIRYRPPRLPRPRPRPDFCPRP, for which the “shrunken log2 fold change” value was -0.228. For the sequence RRIRYRPPRLPRPRPRPVFSPRP, the “shrunken log2 fold change” value is -0.303. As for RRIRIRPPRLPRPRPRPALNPRP, the “shrunken log2 fold change” value was -0.484. Next, RRIRERPPRLPRPRPRPAHFPRP: 0.0793. On to RRIRDRPPRLPRPRPRPLVSPRP, for which the “shrunken log2 fold change” value worked out at 0.469. For RRIRMRPPRLPRPRPRPLISPRP, the “shrunken log2 fold change” value came out at 0.171. The figure for RRIRWRPPRLPRPRPRPQPQPRP is 0.417. Take RRIRVRPPRLPRPRPRPKGGPRP: the “shrunken log2 fold change” value was 0.0495. For the sequence RRIRLRPPRLPRPRPRPDAVPRP, the “shrunken log2 fold change” value was -0.199. The figure for RRIRMRPPRLPRPRPRPGGTPRP is 0.722; for RRIRDRPPRLPRPRPRPFLVPRP it is -0.199; for RRIRCRPPRLPRPRPRPEGMPRP it is 0.422. For the sequence RRIRTRPPRLPRPRPRPDLEPRP, the “shrunken log2 fold change” value is -0.00853. Next, RRIRIRPPRLPRPRPRPKMMPRP: -0.596.

Turning to RRIRDRPPRLPRPRPRPNNCPRP, the “shrunken log2 fold change” value is -0.466.

As for RRIRQRPPRLPRPRPRPFARPRP, the “shrunken log2 fold change” value is -0.0149. RRIRHRPPRLPRPRPRPCPMPRP: the “shrunken log2 fold change” value is -0.0207. The figure for RRIRIRPPRLPRPRPRPIRWPRP is 0.0124. Take RRIRVRPPRLPRPRPRPDYCPRP: the “shrunken log2 fold change” value is -0.207. RRIRTRPPRLPRPRPRPGYWPRP: the “shrunken log2 fold change” value was -0.0903. On to RRIRMRPPRLPRPRPRPSNEPRP, for which the “shrunken log2 fold change” value was 0.287. RRIRRRPPRLPRPRPRPGIMPRP: the “shrunken log2 fold change” value was 0.156. Take RRIRWRPPRLPRPRPRPAYLPRP: the “shrunken log2 fold change” value is -0.108.

With RRIRHRPPRLPRPRPRPASEPRP, the “shrunken log2 fold change” value was -0.131. With RRIRDRPPRLPRPRPRPQNKPRP, the “shrunken log2 fold change” value is -0.475. As to RRIRGRPPRLPRPRPRPMAIPRP, the “shrunken log2 fold change” value came to 0.0503. As for RRIRIRPPRLPRPRPRPTAQPRP, the “shrunken log2 fold change” value worked out at 0.154.

Regarding RRIRMRPPRLPRPRPRPCTSPRP, the “shrunken log2 fold change” value amounted to 0.0228. On to RRIRSRPPRLPRPRPRPHKFPRP, for which the “shrunken log2 fold change” value was 0.00286. For the sequence RRIRIRPPRLPRPRPRPECGPRP, the “shrunken log2 fold change” value is -0.118. With RRIRQRPPRLPRPRPRPNFYPRP, the “shrunken log2 fold change” value is -0.0848. For the sequence RRIRNRPPRLPRPRPRPEGDPRP, the “shrunken log2 fold change” value was -0.043. RRIRLRPPRLPRPRPRPHFAPRP: the “shrunken log2 fold change” value was -0.0165. For the sequence RRIRPRPPRLPRPRPRPIDVPRP, the “shrunken log2 fold change” value is -0.148. The figure for RRIRSRPPRLPRPRPRPVIAPRP is 0.053; for RRIRRRPPRLPRPRPRPGFFPRP it is 0.268; for RRIRTRPPRLPRPRPRPYFMPRP it is -0.836. Take RRIRFRPPRLPRPRPRPTHDPRP: the “shrunken log2 fold change” value came out at 0.241. For the sequence RRIRMRPPRLPRPRPRPHTQPRP, the “shrunken log2 fold change” value came out at 0.614. Take RRIRVRPPRLPRPRPRPINYPRP: the “shrunken log2 fold change” value is -0.348. For RRIRFRPPRLPRPRPRPQTMPRP, the “shrunken log2 fold change” value was -0.144. As for RRIRNRPPRLPRPRPRPNIAPRP, the “shrunken log2 fold change” value was -0.352. Next, RRIRGRPPRLPRPRPRPTMPPRP: 0.425.

On to RRIRERPPRLPRPRPRPNDQPRP, for which the “shrunken log2 fold change” value turned out to be 0.0572. The figure for RRIRTRPPRLPRPRPRPFISPRP is -0.0743; for RRIRNRPPRLPRPRPRPCFGPRP it is 0.0347. In the case of RRIRSRPPRLPRPRPRPKYHPRP, the “shrunken log2 fold change” value was -0.601. Turning to RRIRCRPPRLPRPRPRPVQEPRP, the “shrunken log2 fold change” value was 0.286. RRIRYRPPRLPRPRPRPDVEPRP: the “shrunken log2 fold change” value was -0.00174. Regarding RRIRMRPPRLPRPRPRPLTYPRP, the “shrunken log2 fold change” value is -0.0782. As to RRIRFRPPRLPRPRPRPPSSPRP, the “shrunken log2 fold change” value is 0.208. Regarding RRIRVRPPRLPRPRPRPLCVPRP, the “shrunken log2 fold change” value was found to be 1.22. Take RRIRRRPPRLPRPRPRPCHDPRP: the “shrunken log2 fold change” value is -0.105.

In the case of RRIRLRPPRLPRPRPRPWYLPRP, the “shrunken log2 fold change” value is -0.759. For RRIRTRPPRLPRPRPRPRHTPRP, the “shrunken log2 fold change” value was -0.16. For RRIRGRPPRLPRPRPRPLHWPRP, the “shrunken log2 fold change” value worked out at 0.627. In the case of RRIRRRPPRLPRPRPRPFSYPRP, the “shrunken log2 fold change” value amounted to 0.016. RRIRNRPPRLPRPRPRPFIDPRP: the “shrunken log2 fold change” value is -0.114. Consider RRIRDRPPRLPRPRPRPSCYPRP, for which the “shrunken log2 fold change” value was -0.302.

For RRIRTRPPRLPRPRPRPNLVPRP, the “shrunken log2 fold change” value was -0.149. Consider RRIRIRPPRLPRPRPRPTVPPRP, for which the “shrunken log2 fold change” value stood at 0.185.

Regarding RRIRFRPPRLPRPRPRPFAVPRP, the “shrunken log2 fold change” value was -0.354.

In the case of RRIRLRPPRLPRPRPRPEGPPRP, the “shrunken log2 fold change” value was 0.539. Next, RRIRTRPPRLPRPRPRPMIAPRP: 0.000989; RRIRQRPPRLPRPRPRPRYYPRP: -0.465. The figure for RRIRKRPPRLPRPRPRPAQFPRP is 0.258; for RRIRCRPPRLPRPRPRPVSKPRP it is -0.109.

Regarding RRIRFRPPRLPRPRPRPHKYPRP, the “shrunken log2 fold change” value was -0.411. For the sequence RRIRDRPPRLPRPRPRPLMHPRP, the “shrunken log2 fold change” value is 0.164. With RRIRWRPPRLPRPRPRPEQYPRP, the “shrunken log2 fold change” value was -0.171.

Take RRIRMRPPRLPRPRPRPFITPRP: the “shrunken log2 fold change” value was -0.456. In the case of RRIRVRPPRLPRPRPRPLKNPRP, the “shrunken log2 fold change” value was -0.0569. As for RRIRRRPPRLPRPRPRPYMAPRP, the “shrunken log2 fold change” value is -0.69.

In the case of RRIRGRPPRLPRPRPRPGVFPRP, the “shrunken log2 fold change” value came out at 0.465. For the sequence RRIRNRPPRLPRPRPRPAWGPRP, the “shrunken log2 fold change” value was determined as 0.288. Take RRIRCRPPRLPRPRPRPMAEPRP: the “shrunken log2 fold change” value was 0.331.

In the case of RRIRWRPPRLPRPRPRPSSAPRP, the “shrunken log2 fold change” value worked out at 0.443.

Take RRIRSRPPRLPRPRPRPMFGPRP: the “shrunken log2 fold change” value was -0.325. With RRIRVRPPRLPRPRPRPYWEPRP, the “shrunken log2 fold change” value was -0.508. In the case of RRIRDRPPRLPRPRPRPKNVPRP, the “shrunken log2 fold change” value was -0.0304. With RRIRRRPPRLPRPRPRPHLRPRP, the “shrunken log2 fold change” value was determined as 0.298. Next, RRIRPRPPRLPRPRPRPFSPPRP: -0.266. As for RRIRIRPPRLPRPRPRPPWEPRP, the “shrunken log2 fold change” value is -0.21. As for RRIRCRPPRLPRPRPRPDEAPRP, the “shrunken log2 fold change” value stood at 0.262. For RRIRCRPPRLPRPRPRPFHRPRP, the “shrunken log2 fold change” value was 0.00717. For the sequence RRIRLRPPRLPRPRPRPYNAPRP, the “shrunken log2 fold change” value is -0.0942. RRIRRRPPRLPRPRPRPCTRPRP: the “shrunken log2 fold change” value is 0.0341. With RRIRMRPPRLPRPRPRPATGPRP, the “shrunken log2 fold change” value was 0.15.

(Values after the supplement of paper PMC9112550, “Optimization of the antimicrobial peptide Bac7 by deep mutational scanning” (BMC Biology, 2022).)
